B1: Membrane-associated tyrosine- and threonine-specific cdc2-inhibitory kinase (Homo sapiens), Q99640 (parent)
chain: MLERPPALAMPMPTEGTPPPLSGTPIPVPAYFRHAEPGFSLKRPRGLSRSLPPPPPAKGSIPISRLFPPRTPGWHQLQPRRVSFRGEASETLQSPGYDPSRPESFFQQSFQRLSRLGHGSYGEVFKVRSKEDGRLYAVKRSMSPFRGPKDRARKLAEVGSHEKVGQHPCCVRLEQAWEEGGILYLQTELCGPSLQQHCEAWGASLPEAQVWGYLRDTLLALAHLHSQGLVHLDVKPANIFLGPRGRCKLGDFGLLVELGTAGAGEVQEGDPRYMAPELLQGSYGTAADVFSLGLTILEVACNMELPHGGEGWQQLRQGYLPPEFTAGLSSELRSVLVMMLEPDPKLRATAEALLALPVLRQPRAWGVLWCMAAEALSRGWALWQALLALLCWLWHGLAHPASWLQPLGPPATPPGSPPCSLLLDSSLSSNWDDDSLGPSLSPEAVLARTVGSTSTPRSRCTPRDALDLSDINSEPPRGSFPSFEPRNLLSLFEDTLDPT

Variants of: B1
Conditions: with ccnb1_human CCNB1, P14635
ccnb1_human CCNB1, P14635, sequence (P14635 whole entry): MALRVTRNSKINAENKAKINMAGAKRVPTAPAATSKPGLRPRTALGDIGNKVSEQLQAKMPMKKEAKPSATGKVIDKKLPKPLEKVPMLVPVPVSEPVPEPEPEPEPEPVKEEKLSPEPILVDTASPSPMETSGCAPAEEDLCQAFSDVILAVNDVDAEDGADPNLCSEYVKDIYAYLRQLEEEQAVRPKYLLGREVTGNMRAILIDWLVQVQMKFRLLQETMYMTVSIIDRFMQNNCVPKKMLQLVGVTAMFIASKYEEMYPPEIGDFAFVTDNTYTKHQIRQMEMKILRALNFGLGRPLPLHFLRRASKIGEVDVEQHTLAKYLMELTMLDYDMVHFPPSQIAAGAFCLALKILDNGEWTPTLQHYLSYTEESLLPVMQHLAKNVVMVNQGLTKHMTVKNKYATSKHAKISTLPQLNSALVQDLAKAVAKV

Variant	effect of a mutation on the interaction
R486A;N487A;L488A	decreasing interaction

Source: IntAct's records for PubMed 10373560
